B1: Lysozyme C, P61626 (parent)
chain: MKALIVLGLVLLSVTVQGKVFERCELARTLKRLGMDGYRGISLANWMCLAKWESGYNTRATNYNAGDRSTDYGIFQINSRYWCNDGKTPGAVNACHLSCSALLQDNIADAVACAKRVVRDPQGIRAWVAWRNRCQNRDVRQYVQGCGV

Variants of: B1
Conditions: Homo sapiens; pH 2.66; Thermal; DSC; Gly-HCl 0.05 M; structure 1LZ1; whole UniProt chain shown

Variant | Tm [°C] | unfolding enthalpy (calorimetric) [kJ/mol] | unfolding enthalpy (van 't Hoff) [kJ/mol]
V92R | 63.8 | 427 | 419
V128Y | 63.3 | 444 | 440
V20D | 59.6 | 431 | 418

Same assay, conditions: Homo sapiens; pH 2.7; 64.9 °C; Thermal; DSC; Gly-HCl 0.05 M; structure 1LZ1; whole UniProt chain shown

Variant | ddG of mutation (higher = less stable) [kJ/mol] | heat capacity change of unfolding [kcal/mol/K] | unfolding enthalpy (calorimetric) [kJ/mol]
V92R | 0.293 | 1.67 | 435
V92N | 1.38 | 1.1 | 483
V92D | 1.8 | 1.58 | 447
V92Y | 1 | 1.65 | 446
V92S | 1.59 | 1.22 | 452
V128R | -3.68 | – | 421
V128Y | 0.586 | – | 451
V20S | 5.9 | 1.55 | 465
V20R | 1.59 | 1.41 | 445
V20D | 5.98 | 1.58 | 466
V20Y | – | 1.82 | 444
V20N | 5.61 | 1.7 | 476

Same assay, conditions: Homo sapiens; pH 2.7; Thermal; DSC; Gly-HCl 0.05 M; structure 1LZ1; whole UniProt chain shown

Variant | Tm [°C] | change of melting temperature, mutant - wild type (higher = more stable) [°C] | heat capacity change of unfolding [kcal/mol/K] | unfolding enthalpy (calorimetric) [kJ/mol]
V92R | 64.6 | -0.3 | – | –
V92N | 63.9 | -1 | – | –
V92D | 63.5 | -1.4 | – | –
V92Y | 64 | -0.9 | – | –
V92S | 64.9 | 0 | 1.22 | 452
V128N | 65.1 | 0.2 | – | –
V128R | 67.8 | 2.9 | – | –
V128Y | 64.4 | -0.5 | – | –
V128D | 65.4 | 0.5 | – | –
V20S | 60.5 | -4.4 | – | –
V20R | 63.6 | -1.3 | – | –
V20D | 60.4 | -4.5 | – | –
V20N | 60.8 | -4.1 | – | –

Same assay, conditions: Homo sapiens; pH 2.85; Thermal; DSC; Gly-HCl 0.05 M; structure 1LZ1; whole UniProt chain shown

Variant | Tm [°C] | unfolding enthalpy (calorimetric) [kJ/mol] | unfolding enthalpy (van 't Hoff) [kJ/mol]
V92R | 67.3 | 452 | 440

Same assay, conditions: Homo sapiens; pH 3; Thermal; DSC; Gly-HCl 0.05 M; structure 1LZ1; whole UniProt chain shown

Variant | Tm [°C] | unfolding enthalpy (calorimetric) [kJ/mol] | unfolding enthalpy (van 't Hoff) [kJ/mol]
V92R | 69.5 | 469 | 456
V128D | 70.4 | 431 | 502

Same assay, conditions: Homo sapiens; pH 3.18; Thermal; DSC; Gly-HCl 0.05 M; structure 1LZ1; whole UniProt chain shown

Variant | Tm [°C] | unfolding enthalpy (calorimetric) [kJ/mol] | unfolding enthalpy (van 't Hoff) [kJ/mol]
V92R | 72.8 | 490 | 477
V128Y | 72.2 | 502 | 507

Same assay, conditions: Homo sapiens; pH 3.22; Thermal; DSC; Gly-HCl 0.05 M; structure 1LZ1; whole UniProt chain shown

Variant | Tm [°C] | unfolding enthalpy (calorimetric) [kJ/mol] | unfolding enthalpy (van 't Hoff) [kJ/mol]
V92R | 73.2 | 494 | 486

Same assay, conditions: Homo sapiens; pH 2.65; Thermal; DSC; Gly-HCl 0.05 M; structure 1LZ1; whole UniProt chain shown

Variant | Tm [°C] | unfolding enthalpy (calorimetric) [kJ/mol] | unfolding enthalpy (van 't Hoff) [kJ/mol]
V92N | 63 | 460 | 477
V20S | 59.4 | 431 | 431

Same assay, conditions: Homo sapiens; pH 2.84; Thermal; DSC; Gly-HCl 0.05 M; structure 1LZ1; whole UniProt chain shown

Variant | Tm [°C] | unfolding enthalpy (calorimetric) [kJ/mol] | unfolding enthalpy (van 't Hoff) [kJ/mol]
V92N | 66.2 | 477 | 485
V128D | 67.9 | 405 | 469

Same assay, conditions: Homo sapiens; pH 2.6; Thermal; DSC; Gly-HCl 0.05 M; structure 1LZ1; whole UniProt chain shown

Variant | Tm [°C] | unfolding enthalpy (calorimetric) [kJ/mol] | unfolding enthalpy (van 't Hoff) [kJ/mol]
V92D | 61.7 | 431 | 460
V20R | 62.1 | 431 | 460
V20N | 59.1 | 435 | 418

Same assay, conditions: Homo sapiens; pH 2.83; Thermal; DSC; Gly-HCl 0.05 M; structure 1LZ1; whole UniProt chain shown

Variant | Tm [°C] | unfolding enthalpy (calorimetric) [kJ/mol] | unfolding enthalpy (van 't Hoff) [kJ/mol]
V92D | 65.9 | 448 | 481
V92S | 66 | 456 | 481
V128N | 67.2 | 473 | 481
V20S | 62.9 | 452 | 448
V20Y | 65.9 | 452 | 461

Same assay, conditions: Homo sapiens; pH 2.98; Thermal; DSC; Gly-HCl 0.05 M; structure 1LZ1; whole UniProt chain shown

Variant | Tm [°C] | unfolding enthalpy (calorimetric) [kJ/mol] | unfolding enthalpy (van 't Hoff) [kJ/mol]
V92D | 68.1 | 469 | 494
V128Y | 69.3 | 477 | 477

Same assay, conditions: Homo sapiens; pH 3.1; Thermal; DSC; Gly-HCl 0.05 M; structure 1LZ1; whole UniProt chain shown

Variant | Tm [°C] | unfolding enthalpy (calorimetric) [kJ/mol] | unfolding enthalpy (van 't Hoff) [kJ/mol]
V92D | 70.1 | 481 | 515

Same assay, conditions: Homo sapiens; pH 3.25; Thermal; DSC; Gly-HCl 0.05 M; structure 1LZ1; whole UniProt chain shown

Variant | Tm [°C] | unfolding enthalpy (calorimetric) [kJ/mol] | unfolding enthalpy (van 't Hoff) [kJ/mol]
V92D | 72.5 | 502 | 531

Same assay, conditions: Homo sapiens; pH 2.67; Thermal; DSC; Gly-HCl 0.05 M; structure 1LZ1; whole UniProt chain shown

Variant | Tm [°C] | unfolding enthalpy (calorimetric) [kJ/mol] | unfolding enthalpy (van 't Hoff) [kJ/mol]
V92Y | 63.3 | 435 | 435

Same assay, conditions: Homo sapiens; pH 3.02; Thermal; DSC; Gly-HCl 0.05 M; structure 1LZ1; whole UniProt chain shown

Variant | Tm [°C] | unfolding enthalpy (calorimetric) [kJ/mol] | unfolding enthalpy (van 't Hoff) [kJ/mol]
V92Y | 70 | 481 | 486

Same assay, conditions: Homo sapiens; pH 3.21; Thermal; DSC; Gly-HCl 0.05 M; structure 1LZ1; whole UniProt chain shown

Variant | Tm [°C] | unfolding enthalpy (calorimetric) [kJ/mol] | unfolding enthalpy (van 't Hoff) [kJ/mol]
V92Y | 73.3 | 502 | 502
V20Y | 72 | 502 | 502

Same assay, conditions: Homo sapiens; pH 3.26; Thermal; DSC; Gly-HCl 0.05 M; structure 1LZ1; whole UniProt chain shown

Variant | Tm [°C] | unfolding enthalpy (calorimetric) [kJ/mol] | unfolding enthalpy (van 't Hoff) [kJ/mol]
V92Y | 74.1 | 511 | 515

Same assay, conditions: Homo sapiens; pH 2.61; Thermal; DSC; Gly-HCl 0.05 M; structure 1LZ1; whole UniProt chain shown

Variant | Tm [°C] | unfolding enthalpy (calorimetric) [kJ/mol] | unfolding enthalpy (van 't Hoff) [kJ/mol]
V92S | 62.1 | 439 | 460

Same assay, conditions: Homo sapiens; pH 3.28; Thermal; DSC; Gly-HCl 0.05 M; structure 1LZ1; whole UniProt chain shown

Variant | Tm [°C] | unfolding enthalpy (calorimetric) [kJ/mol] | unfolding enthalpy (van 't Hoff) [kJ/mol]
V92S | 72.2 | 490 | 510

Same assay, conditions: Homo sapiens; pH 2.64; Thermal; DSC; Gly-HCl 0.05 M; structure 1LZ1; whole UniProt chain shown

Variant | Tm [°C] | unfolding enthalpy (calorimetric) [kJ/mol] | unfolding enthalpy (van 't Hoff) [kJ/mol]
V128N | 64 | 452 | 456

Same assay, conditions: Homo sapiens; pH 3.04; Thermal; DSC; Gly-HCl 0.05 M; structure 1LZ1; whole UniProt chain shown

Variant | Tm [°C] | unfolding enthalpy (calorimetric) [kJ/mol] | unfolding enthalpy (van 't Hoff) [kJ/mol]
V128N | 70.6 | 494 | 494

Same assay, conditions: Homo sapiens; pH 3.13; Thermal; DSC; Gly-HCl 0.05 M; structure 1LZ1; whole UniProt chain shown

Variant | Tm [°C] | unfolding enthalpy (calorimetric) [kJ/mol] | unfolding enthalpy (van 't Hoff) [kJ/mol]
V128N | 71.7 | 502 | 510

Same assay, conditions: Homo sapiens; pH 2.8; Thermal; DSC; Gly-HCl 0.05 M; structure 1LZ1; whole UniProt chain shown

Variant | Tm [°C] | unfolding enthalpy (calorimetric) [kJ/mol] | unfolding enthalpy (van 't Hoff) [kJ/mol]
V128R | 69.3 | 452 | 461

Same assay, conditions: Homo sapiens; pH 3.01; Thermal; DSC; Gly-HCl 0.05 M; structure 1LZ1; whole UniProt chain shown

Variant | Tm [°C] | unfolding enthalpy (calorimetric) [kJ/mol] | unfolding enthalpy (van 't Hoff) [kJ/mol]
V128R | 72.8 | 477 | 486
V20D | 65.7 | 473 | 456
V20N | 66.3 | 490 | 464

Same assay, conditions: Homo sapiens; pH 3.15; Thermal; DSC; Gly-HCl 0.05 M; structure 1LZ1; whole UniProt chain shown

Variant | Tm [°C] | unfolding enthalpy (calorimetric) [kJ/mol] | unfolding enthalpy (van 't Hoff) [kJ/mol]
V128R | 75 | 490 | 502
V20R | 70.7 | 477 | 515

Same assay, conditions: Homo sapiens; pH 3.38; Thermal; DSC; Gly-HCl 0.05 M; structure 1LZ1; whole UniProt chain shown

Variant | Tm [°C] | unfolding enthalpy (calorimetric) [kJ/mol] | unfolding enthalpy (van 't Hoff) [kJ/mol]
V128Y | 75.4 | 523 | 523

Same assay, conditions: Homo sapiens; pH 2.63; Thermal; DSC; Gly-HCl 0.05 M; structure 1LZ1; whole UniProt chain shown

Variant | Tm [°C] | unfolding enthalpy (calorimetric) [kJ/mol] | unfolding enthalpy (van 't Hoff) [kJ/mol]
V128D | 63.9 | 378 | 452

Same assay, conditions: Homo sapiens; pH 3.34; Thermal; DSC; Gly-HCl 0.05 M; structure 1LZ1; whole UniProt chain shown

Variant | Tm [°C] | unfolding enthalpy (calorimetric) [kJ/mol] | unfolding enthalpy (van 't Hoff) [kJ/mol]
V128D | 75.5 | 452 | 523

Same assay, conditions: Homo sapiens; pH 3.09; Thermal; DSC; Gly-HCl 0.05 M; structure 1LZ1; whole UniProt chain shown

Variant | Tm [°C] | unfolding enthalpy (calorimetric) [kJ/mol] | unfolding enthalpy (van 't Hoff) [kJ/mol]
V20S | 67.1 | 481 | 477

Same assay, conditions: Homo sapiens; pH 3.45; Thermal; DSC; Gly-HCl 0.05 M; structure 1LZ1; whole UniProt chain shown

Variant | Tm [°C] | unfolding enthalpy (calorimetric) [kJ/mol] | unfolding enthalpy (van 't Hoff) [kJ/mol]
V20S | 73 | 519 | 527

Same assay, conditions: Homo sapiens; pH 2.88; Thermal; DSC; Gly-HCl 0.05 M; structure 1LZ1; whole UniProt chain shown

Variant | Tm [°C] | unfolding enthalpy (calorimetric) [kJ/mol] | unfolding enthalpy (van 't Hoff) [kJ/mol]
V20R | 66.4 | 452 | 481

Same assay, conditions: Homo sapiens; pH 3.3; Thermal; DSC; Gly-HCl 0.05 M; structure 1LZ1; whole UniProt chain shown

Variant | Tm [°C] | unfolding enthalpy (calorimetric) [kJ/mol] | unfolding enthalpy (van 't Hoff) [kJ/mol]
V20R | 74.1 | 502 | 527
V20D | 70.2 | 502 | 494

Same assay, conditions: Homo sapiens; pH 2.96; Thermal; DSC; Gly-HCl 0.05 M; structure 1LZ1; whole UniProt chain shown

Variant | Tm [°C] | unfolding enthalpy (calorimetric) [kJ/mol] | unfolding enthalpy (van 't Hoff) [kJ/mol]
V20D | 64.9 | 469 | 452

Same assay, conditions: Homo sapiens; pH 3.14; Thermal; DSC; Gly-HCl 0.05 M; structure 1LZ1; whole UniProt chain shown

Variant | Tm [°C] | unfolding enthalpy (calorimetric) [kJ/mol] | unfolding enthalpy (van 't Hoff) [kJ/mol]
V20D | 68 | 485 | 473

Same assay, conditions: Homo sapiens; pH 2.91; Thermal; DSC; Gly-HCl 0.05 M; structure 1LZ1; whole UniProt chain shown

Variant | Tm [°C] | unfolding enthalpy (calorimetric) [kJ/mol] | unfolding enthalpy (van 't Hoff) [kJ/mol]
V20Y | 67.4 | 465 | 469

Same assay, conditions: Homo sapiens; pH 3.2; Thermal; DSC; Gly-HCl 0.05 M; structure 1LZ1; whole UniProt chain shown

Variant | Tm [°C] | unfolding enthalpy (calorimetric) [kJ/mol] | unfolding enthalpy (van 't Hoff) [kJ/mol]
V20Y | 72.3 | 498 | 502

Same assay, conditions: Homo sapiens; pH 3.24; Thermal; DSC; Gly-HCl 0.05 M; structure 1LZ1; whole UniProt chain shown

Variant | Tm [°C] | unfolding enthalpy (calorimetric) [kJ/mol] | unfolding enthalpy (van 't Hoff) [kJ/mol]
V20Y | 73 | 507 | 511

Same assay, conditions: Homo sapiens; pH 2.82; Thermal; DSC; Gly-HCl 0.05 M; structure 1LZ1; whole UniProt chain shown

Variant | Tm [°C] | unfolding enthalpy (calorimetric) [kJ/mol] | unfolding enthalpy (van 't Hoff) [kJ/mol]
V20N | 62.7 | 460 | 439

From FireProtDB (doi:10.1074/jbc.m110728200)
